Experimental data from paper doi:10.1101/2019.12.12.874594.

T1: 15.5K (His-15.5K) (human, UniProt P55769 1-128)
T1 sequence: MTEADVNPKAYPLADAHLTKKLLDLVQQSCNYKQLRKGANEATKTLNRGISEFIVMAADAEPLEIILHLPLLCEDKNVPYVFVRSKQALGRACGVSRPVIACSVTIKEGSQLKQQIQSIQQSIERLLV

B1: zebrafish U8-2 snoRNA, mature (structured_RNA)
RNA: ACAUCAGUGAGGUUUGUCCUACCUGUUUUAGAAAUAAGACUUCAGCACAUGAUGAUUGGAUUCUAUGAAUAUGUGAUUAUAUUCUGUAUUCGUAUAGGGUUCACAACUCUGGAUCCUAUGUGAU
B2: zebrafish U8-5 snoRNA, mature (structured_RNA)
RNA: GCAUCAGUGAGGUUUAUCCUUGCCUGUUGUCUUAGAAUUAAGACUUCAGCACAUGAUGAUUGGAUUCUAUGAAUACAUGAUUAUACUCUGUGUUCAUAUAGGGCUUGUCACCCAUUUAUGAAUCCUGUCUGAU
B3: zebrafish U8-4 snoRNA, mature (structured_RNA)
RNA: GUAUCAGUGAGGUUUAUCCUUACCUGUUGUCUUAGAAAUAAGACUGCAGUAUAUGAUGAUUGGAUUCUAUGAAUAUGUGACUAUGUUUGUACUGUAUUUGUACAUGACUUGCAACCUCUUUAUAAAUCCUAUCUGAU
B4: zebrafish U8-1 snoRNA, mature (structured_RNA)
RNA: GCAUCAGUGAGGUUUAUCCUUACCUGUUGUCUUAGAAAUAAGACUACAGCACAUGAUGAUUGGAUUCUAUGAAUGCGUGAUUAUAUUCUGUAUUCUUAAAGGGUUUGCAACACCUUUAUGAAUCCUGUCUGAU

What follows are binders tested against T1, 15.5K (His-15.5K) (assay: EMSA).
B1: binds.
B2: binds.
B3: binds.
B4: binds.
